Test results published in PMC10568284.
pKd: −log10 of the molar value.

Legend:
[1] = biological target: tissue factor pathway inhibitor alpha (human) (UniProt P10646); test: SPR
antithrombin = antithrombin (UniProt P01008); test: SPR
UniProt P01008, sequence (P01008 33-464): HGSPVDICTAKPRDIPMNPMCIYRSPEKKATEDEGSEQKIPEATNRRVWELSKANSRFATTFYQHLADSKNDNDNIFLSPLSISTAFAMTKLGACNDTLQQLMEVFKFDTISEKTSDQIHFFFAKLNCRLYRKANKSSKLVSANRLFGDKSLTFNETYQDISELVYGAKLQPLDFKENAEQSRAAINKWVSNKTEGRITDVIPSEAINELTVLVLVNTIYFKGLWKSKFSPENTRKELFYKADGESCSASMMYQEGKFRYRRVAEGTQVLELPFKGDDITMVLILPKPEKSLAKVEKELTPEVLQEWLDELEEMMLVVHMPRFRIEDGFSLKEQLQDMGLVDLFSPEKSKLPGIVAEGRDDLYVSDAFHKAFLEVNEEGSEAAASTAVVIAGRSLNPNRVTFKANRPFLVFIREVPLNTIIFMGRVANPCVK

UniProt P10646, sequence (P10646 29-304): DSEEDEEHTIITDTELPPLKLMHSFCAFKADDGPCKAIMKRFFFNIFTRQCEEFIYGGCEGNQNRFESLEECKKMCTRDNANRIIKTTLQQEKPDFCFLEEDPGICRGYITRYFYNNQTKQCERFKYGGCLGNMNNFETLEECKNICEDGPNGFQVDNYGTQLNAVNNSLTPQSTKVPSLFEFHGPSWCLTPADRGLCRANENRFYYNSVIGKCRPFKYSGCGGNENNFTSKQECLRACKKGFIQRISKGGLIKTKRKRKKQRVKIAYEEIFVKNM

Row | pKd [1] | pKd (antithrombin) | Substance
1 | 8.70 | 6.38 | S195A Gla-domainless factor Xa (from UniProt P00742 82-182; P00742 235-488) (domain or fragment)
2 | – | 6.34 | K96YS195A GD-FXa (from UniProt P00742 82-182; P00742 235-488) (domain or fragment)
